{"source": "IntAct's records for PubMed 25502805", "parents": {"B1": {"name": "Mothers against decapentaplegic homolog 4 (Homo sapiens), Q13485 (parent)", "chain": "MDNMSITNTPTSNDACLSIVHSLMCHRQGGESETFAKRAIESLVKKLKEKKDELDSLITAITTNGAHPSKCVTIQRTLDGRLQVAGRKGFPHVIYARLWRWPDLHKNELKHVKYCQYAFDLKCDSVCVNPYHYERVVSPGIDLSGLTLQSNAPSSMMVKDEYVHDFEGQPSLSTEGHSIQTIQHPPSNRASTETYSTPALLAPSESNATSTANFPNIPVASTSQPASILGGSHSEGLLQIASGPQPGQQQNGFTGQPATYHHNSTTTWTGSRTAPYTPNLPHHQNGHLQHHPPMPPHPGHYWPVHNELAFQPPISNHPAPEYWCSIAYFEMDVQVGETFKVPSSCPIVTVDGYVDPSGGDRFCLGQLSNVHRTEAIERARLHIGKGVQLECKGEGDVWVRCLSDHAVFVQSYYLDREAGRAPGDAVHKIYPSAYIKVFDLRQCHRQMQQQAATAQAAAAAQAAAVAGNIPGPGSVGGIAPAISLSAAAGIGVDDLRRLCILRMSFVKGWGPDYPRQSIKETPCWIEIHLHRALQLLDEVLHTMPIADPQPLD"}, "B2": {"name": "DNA mismatch repair protein Mlh1 (Homo sapiens), P40692 (parent)", "chain": "MSFVAGVIRRLDETVVNRIAAGEVIQRPANAIKEMIENCLDAKSTSIQVIVKEGGLKLIQIQDNGTGIRKEDLDIVCERFTTSKLQSFEDLASISTYGFRGEALASISHVAHVTITTKTADGKCAYRASYSDGKLKAPPKPCAGNQGTQITVEDLFYNIATRRKALKNPSEEYGKILEVVGRYSVHNAGISFSVKKQGETVADVRTLPNASTVDNIRSIFGNAVSRELIEIGCEDKTLAFKMNGYISNANYSVKKCIFLLFINHRLVESTSLRKAIETVYAAYLPKNTHPFLYLSLEISPQNVDVNVHPTKHEVHFLHEESILERVQQHIESKLLGSNSSRMYFTQTLLPGLAGPSGEMVKSTTSLTSSSTSGSSDKVYAHQMVRTDSREQKLDAFLQPLSKPLSSQPQAIVTEDKTDISSGRARQQDEEMLELPAPAEVAAKNQSLEGDTTKGTSEMSEKRGPTSSNPRKRHREDSDVEMVEDDSRKEMTAACTPRRRIINLTSVLSLQEEINEQGHEVLREMLHNHSFVGCVNPQWALAQHQTKLYLLNTTKLSEELFYQILIYDFANFGVLRLSEPAPLFDLAMLALDSPESGWTEEDGPKEGLAEYIVEFLKKKAEMLADYFSLEIDEEGNLIGLPLLIDNYVPPLEGLPIFILRLATEVNWDEEKECFESLSKECAMFYSIRKQYISEESTLSGQQSEVPGSIPNSWKWTVEHIVYKALRSHILPPKHFTEDGNILQLANLPDLYKVFERC", "partner": "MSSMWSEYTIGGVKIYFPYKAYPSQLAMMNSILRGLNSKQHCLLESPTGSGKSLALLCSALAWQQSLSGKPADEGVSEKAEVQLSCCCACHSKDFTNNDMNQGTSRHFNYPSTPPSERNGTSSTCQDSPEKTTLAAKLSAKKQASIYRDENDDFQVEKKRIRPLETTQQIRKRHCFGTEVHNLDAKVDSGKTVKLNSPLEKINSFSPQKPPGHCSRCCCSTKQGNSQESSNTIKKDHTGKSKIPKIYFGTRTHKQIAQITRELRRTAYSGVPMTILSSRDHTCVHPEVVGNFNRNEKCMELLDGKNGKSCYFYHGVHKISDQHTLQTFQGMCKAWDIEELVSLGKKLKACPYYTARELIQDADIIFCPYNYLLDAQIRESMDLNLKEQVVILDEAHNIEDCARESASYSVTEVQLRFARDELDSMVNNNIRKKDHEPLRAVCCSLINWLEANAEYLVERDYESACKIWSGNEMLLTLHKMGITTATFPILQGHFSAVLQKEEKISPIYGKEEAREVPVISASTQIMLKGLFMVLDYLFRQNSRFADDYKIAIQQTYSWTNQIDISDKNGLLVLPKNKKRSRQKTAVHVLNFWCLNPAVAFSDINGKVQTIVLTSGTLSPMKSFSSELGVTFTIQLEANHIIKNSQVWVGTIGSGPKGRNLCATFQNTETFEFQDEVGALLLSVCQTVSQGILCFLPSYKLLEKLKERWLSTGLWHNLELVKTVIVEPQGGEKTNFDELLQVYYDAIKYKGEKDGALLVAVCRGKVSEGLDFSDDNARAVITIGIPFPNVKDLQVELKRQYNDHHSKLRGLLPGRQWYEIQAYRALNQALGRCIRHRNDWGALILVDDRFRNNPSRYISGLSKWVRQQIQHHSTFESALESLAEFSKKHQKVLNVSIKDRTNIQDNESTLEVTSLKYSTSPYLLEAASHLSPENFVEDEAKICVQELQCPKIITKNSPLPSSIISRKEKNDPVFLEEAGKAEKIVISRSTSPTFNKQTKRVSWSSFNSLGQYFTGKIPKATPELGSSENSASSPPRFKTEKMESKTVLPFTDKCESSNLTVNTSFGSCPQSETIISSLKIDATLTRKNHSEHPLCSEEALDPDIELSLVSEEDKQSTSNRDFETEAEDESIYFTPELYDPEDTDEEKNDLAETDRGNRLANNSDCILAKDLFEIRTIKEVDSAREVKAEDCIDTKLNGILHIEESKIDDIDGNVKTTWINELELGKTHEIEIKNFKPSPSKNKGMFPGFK"}, "B3": {"name": "Cyclin-dependent kinase 4 inhibitor C (Homo sapiens), P42773 (parent)", "chain": "MAEPWGNELASAAARGDLEQLTSLLQNNVNVNAQNGFGRTALQVMKLGNPEIARRLLLRGANPDLKDRTGFAVIHDAARAGFLDTLQTLLEFQADVNIEDNEGNLPLHLAAKEGHLRVVEFLVKHTASNVGHRNHKGDTACDLARLYGRNEVVSLMQANGAGGATNLQ"}, "B4": {"name": "DNA mismatch repair protein Mlh1 (Homo sapiens), P40692 (parent)", "chain": "B2 chain", "partner": "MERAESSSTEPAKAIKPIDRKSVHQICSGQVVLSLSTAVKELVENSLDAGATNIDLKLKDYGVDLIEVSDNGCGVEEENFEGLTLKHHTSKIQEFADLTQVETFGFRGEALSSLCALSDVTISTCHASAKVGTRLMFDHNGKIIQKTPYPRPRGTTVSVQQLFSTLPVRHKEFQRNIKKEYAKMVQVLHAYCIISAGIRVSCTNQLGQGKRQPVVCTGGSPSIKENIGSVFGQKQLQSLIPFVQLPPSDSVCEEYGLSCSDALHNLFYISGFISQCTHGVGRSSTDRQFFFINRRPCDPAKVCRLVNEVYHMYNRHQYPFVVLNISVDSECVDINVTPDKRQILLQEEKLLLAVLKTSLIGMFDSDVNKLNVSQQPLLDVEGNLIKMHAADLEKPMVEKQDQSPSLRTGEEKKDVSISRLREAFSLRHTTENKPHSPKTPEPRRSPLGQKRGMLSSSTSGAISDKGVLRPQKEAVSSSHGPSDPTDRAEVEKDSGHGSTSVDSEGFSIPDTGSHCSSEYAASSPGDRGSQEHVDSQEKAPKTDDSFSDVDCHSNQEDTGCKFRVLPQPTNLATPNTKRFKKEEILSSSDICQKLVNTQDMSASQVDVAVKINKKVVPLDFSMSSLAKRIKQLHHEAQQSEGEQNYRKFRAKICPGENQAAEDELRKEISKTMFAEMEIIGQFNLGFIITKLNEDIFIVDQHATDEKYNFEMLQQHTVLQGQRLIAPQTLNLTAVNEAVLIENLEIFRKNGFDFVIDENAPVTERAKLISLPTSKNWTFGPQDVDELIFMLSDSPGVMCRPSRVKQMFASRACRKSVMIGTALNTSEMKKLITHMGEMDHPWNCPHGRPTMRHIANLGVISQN"}, "B5": {"name": "Interleukin-1 receptor-associated kinase 4 (Homo sapiens), Q9NWZ3 (parent)", "chain": "MNKPITPSTYVRCLNVGLIRKLSDFIDPQEGWKKLAVAIKKPSGDDRYNQFHIRRFEALLQTGKSPTSELLFDWGTTNCTVGDLVDLLIQNEFFAPASLLLPDAVPKTANTLPSKEAITVQQKQMPFCDKDRTLMTPVQNLEQSYMPPDSSSPENKSLEVSDTRFHSFSFYELKNVTNNFDERPISVGGNKMGEGGFGVVYKGYVNNTTVAVKKLAAMVDITTEELKQQFDQEIKVMAKCQHENLVELLGFSSDGDDLCLVYVYMPNGSLLDRLSCLDGTPPLSWHMRCKIAQGAANGINFLHENHHIHRDIKSANILLDEAFTAKISDFGLARASEKFAQTVMTSRIVGTTAYMAPEALRGEITPKSDIYSFGVVLLEIITGLPAVDEHREPQLLLDIKEEIEDEEKTIEDYIDKKMNDADSTSVEAMYSVASQCLHEKKNKRPDIKKVQQLLQEMTAS"}}}
{"variants_of": "B1", "settings": "with smad3_human SMAD3, P84022"}
{"variant": "N13S", "effect of a mutation on the interaction": "with no effect"}
{"variant": "R361C", "effect of a mutation on the interaction": "disrupting interaction strength"}
{"variants_of": "B1", "settings": "with smad9_human SMAD9, O15198"}
{"variant": "N13S", "effect of a mutation on the interaction": "with no effect"}
{"variant": "R361C", "effect of a mutation on the interaction": "disrupting interaction strength"}
{"variants_of": "B2", "settings": "with fancj_human BRIP1, Q9BX63"}
{"variant": "I107R", "effect of a mutation on the interaction": "with no effect"}
{"variants_of": "B3", "settings": "with cdk6_human CDK6, Q00534"}
{"variant": "MAEPWGNELASAAARGDLEQLTSLLQNNVNLNAQNGFGRTALQVMKLGNPEIARRLLLRGANPDLKDRTGFAVIHDAARAGFLDTLQTLLEFQADVNIEDNEGNLPLHLAAKEGHLRVVEFLVKHTASNVGHRNHKGDTACDLARLYGRNEVVSLMQANGAGGATNLQ", "note": "[V31L]", "effect of a mutation on the interaction": "with no effect"}
{"variants_of": "B4", "settings": "with pms2_human PMS2, P54278"}
{"variant": "I107R", "effect of a mutation on the interaction": "disrupting interaction strength"}
{"variants_of": "B5", "settings": "with myd88_human MYD88, Q99836"}
{"variant": "MNKPITPSTYVRCLNVGLIRKLSDFIDPQEGWKKLAVAIKKPSGDDRYNQFHIRRFEALLQTGKSPTSELLFDWGTTNCTVGDLVDLLIQNEFFAPASLLLPDAVPKTANTLPSKEAITVQQKQMPFCDKDRTLMTPVQNLEQSYMPPDSSSPENKSLEVSDTRFHSFSFYELKNVTNNFDERPISVGGNKMGEGGFGVVYKGYVNNTTVAVKKLAAMVDITTEELKQQFDQEIKVMAKCQHENLVELLGFSSDGDDLCLVYVYMPNGSLLDRLSCLDGTPPLSWHMRCKIAQGAANDINFLHENHHIHRDIKSANILLDEAFTAKISDFGLARASEKFAQTVMTSRIVGTTAYMAPEALRGEITPKSDIYSFGVVLLEIITGLPAVDEHREPQLLLDIKEEIEDEEKTIEDYIDKKMNDADSTSVEAMYSVASQCLHEKKNKRPDIKKVQQLLQEMTAS", "note": "[G298D]", "effect of a mutation on the interaction": "disrupting interaction strength"}
{"variant": "MNKPITPSTYVCCLNVGLIRKLSDFIDPQEGWKKLAVAIKKPSGDDRYNQFHIRRFEALLQTGKSPTSELLFDWGTTNCTVGDLVDLLIQNEFFAPASLLLPDAVPKTANTLPSKEAITVQQKQMPFCDKDRTLMTPVQNLEQSYMPPDSSSPENKSLEVSDTRFHSFSFYELKNVTNNFDERPISVGGNKMGEGGFGVVYKGYVNNTTVAVKKLAAMVDITTEELKQQFDQEIKVMAKCQHENLVELLGFSSDGDDLCLVYVYMPNGSLLDRLSCLDGTPPLSWHMRCKIAQGAANGINFLHENHHIHRDIKSANILLDEAFTAKISDFGLARASEKFAQTVMTSRIVGTTAYMAPEALRGEITPKSDIYSFGVVLLEIITGLPAVDEHREPQLLLDIKEEIEDEEKTIEDYIDKKMNDADSTSVEAMYSVASQCLHEKKNKRPDIKKVQQLLQEMTAS", "note": "[R12C]", "effect of a mutation on the interaction": "disrupting interaction strength"}
